One data set concerns D. ficus RecA (D. ficus). The experiment in a line: PIFE (Cy3 fluorescence enhancement). The note with it: 1 nM DNA; HDGF assays: 46 mM NaCl, 0.9 mM KCl, 3.3 mM Na2HPO4, 0.66 mM KH2PO4, pH 7.4; at least 1 h on ice; 1-10 nM Cy3 DNA, 10 pM-100 nM protein; RecA dsDNA control at ….
Data set [1] deals with T1, HDGF PWWP domain (human, UniProt P51858 1-100). The experiment in a line: PIFQ (Cy3 fluorescence quenching); 1 nM DNA; Hill fit; HDGF assays: 46 mM NaCl, 0.9 mM KCl, 3.3 mM Na2HPO4, 0.66 mM KH2PO4, pH 7.4; at least 1 h on ice; 1-10 nM Cy3 DNA, 10 pM-100 nM protein; RecA dsDNA control at pH 7.5. The settings on record: protein: recombinant; label: 5' Cy3.
T1 sequence (P51858 1-100): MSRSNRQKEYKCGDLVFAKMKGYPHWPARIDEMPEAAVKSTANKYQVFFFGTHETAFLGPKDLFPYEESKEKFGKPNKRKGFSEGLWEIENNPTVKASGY
Data set [2] has as its target T2, HDGF C140 domain (human, UniProt P51858 101-240). The experiment in a line: PIFQ (Cy3 fluorescence quenching); 1 nM DNA; HDGF assays: 46 mM NaCl, 0.9 mM KCl, 3.3 mM Na2HPO4, 0.66 mM KH2PO4, pH 7.4; at least 1 h on ice; 1-10 nM Cy3 DNA, 10 pM-100 nM protein; RecA dsDNA control at pH 7.5. The note with it: protein: recombinant.
Data set [3] concerns the target T3, HDGF S103A (human, UniProt P51858 1-240, S103A). The data set is described as above. The settings on record: protein: recombinant; label: 5' Cy3.
The target in data set [4] is T4, HDGF (human, UniProt P51858 1-240). The description is as above. The settings on record: protein: recombinant; label: 5' Cy3.
T4 sequence (P51858 whole entry, the tested form may be a part): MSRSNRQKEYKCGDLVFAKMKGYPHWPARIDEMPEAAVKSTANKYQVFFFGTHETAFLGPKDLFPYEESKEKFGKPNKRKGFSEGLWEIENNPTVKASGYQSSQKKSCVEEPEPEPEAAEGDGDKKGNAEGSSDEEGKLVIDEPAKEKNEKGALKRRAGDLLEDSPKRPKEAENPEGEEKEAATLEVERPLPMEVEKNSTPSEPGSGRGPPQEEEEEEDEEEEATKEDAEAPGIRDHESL
For data set [5], the target named is T1, HDGF PWWP domain. The experiment in a line: PIFQ (Cy3 fluorescence quenching); 1 nM DNA; n=1.00; HDGF assays: 46 mM NaCl, 0.9 mM KCl, 3.3 mM Na2HPO4, 0.66 mM KH2PO4, pH 7.4; at least 1 h on ice; 1-10 nM Cy3 DNA, 10 pM-100 nM protein; RecA dsDNA control at pH 7.5. The settings on record: protein: recombinant; label: 5' Cy3.
Data set [6] concerns the target T1, HDGF PWWP domain. The experiment in a line: PIFQ (Cy3 fluorescence quenching); 10 nM DNA; approximation model; less reliable (protein depletion); HDGF assays: 46 mM NaCl, 0.9 mM KCl, 3.3 mM Na2HPO4, 0.66 mM KH2PO4, pH 7.4; at least 1 h on ice; 1-10 nM Cy3 DNA, 10 pM-100 nM protein; RecA dsDNA control at pH 7.5. The settings on record: protein: recombinant; label: 5' Cy3.

The target in data set [7] is T4, HDGF. The experiment in a line: PIFQ (Cy3 fluorescence quenching); 10 nM DNA; Hill fit (approximation model 0.031 nM); HDGF assays: 46 mM NaCl, 0.9 mM KCl, 3.3 mM Na2HPO4, 0.66 mM KH2PO4, pH 7.4; at least 1 h on ice; 1-10 nM Cy3 DNA, 10 pM-100 nM protein; RecA dsDNA control at pH 7.5. The settings on record: protein: recombinant; label: 5' Cy3.
Data set [8] addresses T4, HDGF. The experiment in a line: PIFQ (Cy3 fluorescence quenching); 5 nM DNA; Hill fit (approximation model 0.019 nM); HDGF assays: 46 mM NaCl, 0.9 mM KCl, 3.3 mM Na2HPO4, 0.66 mM KH2PO4, pH 7.4; at least 1 h on ice; 1-10 nM Cy3 DNA, 10 pM-100 nM protein; RecA dsDNA control at pH 7.5. The note with it: protein: recombinant; label: 5' Cy3.
The target of data set [9] is T1, HDGF PWWP domain. The experiment in a line: PIFQ (Cy3 fluorescence quenching); 5 nM DNA; approximation model; HDGF assays: 46 mM NaCl, 0.9 mM KCl, 3.3 mM Na2HPO4, 0.66 mM KH2PO4, pH 7.4; at least 1 h on ice; 1-10 nM Cy3 DNA, 10 pM-100 nM protein; RecA dsDNA control at pH 7.5. The note with it: protein: recombinant; label: 5' Cy3.
For data set [10], the target named is T5, HDGF PWWP domain;HDGF C140 domain (human;human, UniProt P51858;P51858 1-100;101-240, |). The experiment in a line: PIFQ (Cy3 fluorescence quenching); 1 nM DNA; equal amounts premixed; Hill n=0.63; HDGF assays: 46 mM NaCl, 0.9 mM KCl, 3.3 mM Na2HPO4, 0.66 mM KH2PO4, pH 7.4; at least 1 h on ice; 1-10 nM Cy3 DNA, 10 pM-100 nM protein; RecA dsDNA control at pH 7.5. The note with it: protein: recombinant;recombinant; copies: 1;1; label: 5' Cy3.
T5 sequence (P51858 1-100, chain 1 of 2): as the sequence (P51858 1-100) above
T5 sequence (P51858 101-240, chain 2 of 2): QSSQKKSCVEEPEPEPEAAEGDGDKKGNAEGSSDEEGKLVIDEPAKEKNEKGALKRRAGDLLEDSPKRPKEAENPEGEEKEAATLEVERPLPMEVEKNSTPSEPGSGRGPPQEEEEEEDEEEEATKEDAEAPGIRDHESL

The target of data set [11] is T4, HDGF. The experiment in a line: PIFQ (Cy3 fluorescence quenching); 1 nM DNA; Hill fit (approximation model 0.017 nM); HDGF assays: 46 mM NaCl, 0.9 mM KCl, 3.3 mM Na2HPO4, 0.66 mM KH2PO4, pH 7.4; at least 1 h on ice; 1-10 nM Cy3 DNA, 10 pM-100 nM protein; RecA dsDNA control at pH 7.5. The settings on record: protein: recombinant; label: 5' Cy3.
Data set [12] has as its target T3, HDGF S103A. The experiment in a line: PIFQ (Cy3 fluorescence quenching); 1 nM DNA; Hill n=0.67; HDGF assays: 46 mM NaCl, 0.9 mM KCl, 3.3 mM Na2HPO4, 0.66 mM KH2PO4, pH 7.4; at least 1 h on ice; 1-10 nM Cy3 DNA, 10 pM-100 nM protein; RecA dsDNA control at pH 7.5. The settings on record: protein: recombinant; label: 5' Cy3.
Data set [13] deals with T2, HDGF C140 domain. The experiment in a line: PIFQ (Cy3 fluorescence quenching); 1 nM DNA; up to 100 nM protein; HDGF assays: 46 mM NaCl, 0.9 mM KCl, 3.3 mM Na2HPO4, 0.66 mM KH2PO4, pH 7.4; at least 1 h on ice; 1-10 nM Cy3 DNA, 10 pM-100 nM protein; RecA dsDNA control at pH 7.5. The settings on record: protein: recombinant; label: 5' Cy3.
The target in data set [14] is T5, HDGF PWWP domain;HDGF C140 domain. The experiment in a line: PIFQ (Cy3 fluorescence quenching); 1 nM DNA; equal amounts premixed; Hill n=0.50; HDGF assays: 46 mM NaCl, 0.9 mM KCl, 3.3 mM Na2HPO4, 0.66 mM KH2PO4, pH 7.4; at least 1 h on ice; 1-10 nM Cy3 DNA, 10 pM-100 nM protein; RecA dsDNA control at pH 7.5. The settings on record: protein: recombinant;recombinant; copies: 1;1; label: Cy3.

Data set [15] deals with T1, HDGF PWWP domain. The experiment in a line: PIFQ (Cy3 fluorescence quenching); 1 nM DNA; Hill n=1.00; HDGF assays: 46 mM NaCl, 0.9 mM KCl, 3.3 mM Na2HPO4, 0.66 mM KH2PO4, pH 7.4; at least 1 h on ice; 1-10 nM Cy3 DNA, 10 pM-100 nM protein; RecA dsDNA control at pH 7.5. The note with it: protein: recombinant; label: Cy3.
Data set [16] deals with T3, HDGF S103A. The experiment in a line: PIFQ (Cy3 fluorescence quenching); 1 nM DNA; Hill n=0.50; HDGF assays: 46 mM NaCl, 0.9 mM KCl, 3.3 mM Na2HPO4, 0.66 mM KH2PO4, pH 7.4; at least 1 h on ice; 1-10 nM Cy3 DNA, 10 pM-100 nM protein; RecA dsDNA control at pH 7.5. The note with it: protein: recombinant; label: Cy3.
Data set [17] has as its target T4, HDGF. The experiment in a line: PIFQ (Cy3 fluorescence quenching); 1 nM DNA; Hill n=0.55; HDGF assays: 46 mM NaCl, 0.9 mM KCl, 3.3 mM Na2HPO4, 0.66 mM KH2PO4, pH 7.4; at least 1 h on ice; 1-10 nM Cy3 DNA, 10 pM-100 nM protein; RecA dsDNA control at pH 7.5. The settings on record: protein: recombinant; label: Cy3.
The target in a further data set is E. coli RecA (E. coli, UniProt P0A7G6 2-353). The experiment in a line: PIFE (Cy3 fluorescence enhancement); 1 nM DNA; approximation model; HDGF assays: 46 mM NaCl, 0.9 mM KCl, 3.3 mM Na2HPO4, 0.66 mM KH2PO4, pH 7.4; at least 1 h on ice; 1-10 nM Cy3 DNA, 10 pM-100 nM protein; RecA dsDNA control at pH 7.5. The note with it: label: Cy3.
E. coli RecA, sequence (P0A7G6 2-353): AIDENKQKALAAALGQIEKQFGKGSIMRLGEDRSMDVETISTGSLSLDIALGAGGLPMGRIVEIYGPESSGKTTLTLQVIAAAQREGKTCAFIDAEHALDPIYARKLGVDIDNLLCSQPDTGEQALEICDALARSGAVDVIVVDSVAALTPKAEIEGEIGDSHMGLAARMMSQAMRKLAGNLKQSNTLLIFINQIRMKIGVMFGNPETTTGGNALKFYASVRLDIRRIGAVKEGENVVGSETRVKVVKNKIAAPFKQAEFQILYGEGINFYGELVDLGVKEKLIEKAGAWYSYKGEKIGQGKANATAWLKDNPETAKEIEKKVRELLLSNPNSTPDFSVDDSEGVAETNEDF
The target of data set [18] is T1, HDGF PWWP domain. The experiment in a line: PIFQ (Cy3 fluorescence quenching); 1 nM DNA; Hill n=1.0; unit not printed in legend; HDGF assays: 46 mM NaCl, 0.9 mM KCl, 3.3 mM Na2HPO4, 0.66 mM KH2PO4, pH 7.4; at least 1 h on ice; 1-10 nM Cy3 DNA, 10 pM-100 nM protein; RecA dsDNA control at pH 7.5. The note with it: protein: recombinant; label: 3' Cy3.
For data set [19], the target named is T4, HDGF. The experiment in a line: PIFQ (Cy3 fluorescence quenching); 1 nM DNA; Hill n=0.60; unit not printed in legend; HDGF assays: 46 mM NaCl, 0.9 mM KCl, 3.3 mM Na2HPO4, 0.66 mM KH2PO4, pH 7.4; at least 1 h on ice; 1-10 nM Cy3 DNA, 10 pM-100 nM protein; RecA dsDNA control at pH 7.5. The settings on record: protein: recombinant; label: 3' Cy3.

T2 sequence (P51858 101-240): as the sequence (P51858 101-240, chain 2 of 2) above
T3 sequence (P51858 whole entry S103A): as the sequence (P51858 whole entry, the tested form may be a part) above, with S103A counted along it

By Kd is commonly meant the equilibrium constant for the complex coming apart. On to “TTTTTTTTTTTTTTTTTTTTTTTTTTTTTTTTTTTTTTTT [poly(dT)40 ssDNA]”, for which, in the data set on D. ficus RecA (D. ficus), the Kd was found to be 13.6 nM.
With “TTTTTTTTTTTTTTTTTTTTTTTTTTTTTTTTTTTTTTTT (double strand) [poly(T-A)40 dsDNA]”, the Kd in the data set with D. ficus RecA (D. ficus) is 19 nM.

B1: poly(T-A)15 dsDNA (dsDNA)
DNA 1: TTTTTTTTTTTTTTT
DNA 2: AAAAAAAAAAAAAAA
Take B1: in the data set with HDGF PWWP domain [1], the Kd was 1.6 ± 0.2 nM. Also, the binding result with HDGF C140 domain [2] (label: 5' Cy3), in the data set with HDGF S103A [3] and in the data set with HDGF [4] was “no binding” in each case.

B2: 15 bp SMYD1 dsDNA (5' Cy3) (dsDNA)
DNA 1: TTCAAGACCAGCCTG
DNA 2: CAGGCTGGTCTTGAA
Regarding B2, the Kd with HDGF PWWP domain [5] was 0.94 ± 0.1 nM; with HDGF PWWP domain [6] it was 1.6 ± 0.2 nM; in the data set with HDGF [7], 0.076 ± 0.02 nM; with HDGF [8] it was 0.085 ± 0.024 nM; with HDGF PWWP domain [9] it was roughly 1 nM; in data set [10], 0.12 ± 0.04 nM. Further, the Kd in the data set with HDGF [11] stood at 0.095 ± 0.016 nM; with HDGF S103A [12] it was 0.072 ± 0.003 nM. For the same molecule, the binding result with HDGF C140 domain [13] is “no binding”.

B3: GC-rich dsDNA (dsDNA)
DNA 1: TCCTCGCTGCCGTCGGCCA
DNA 2: TGGCCGACGGCAGCGAGGA
B3: the Kd in [14] was found to be 0.45 ± 0.06 nM; with HDGF PWWP domain [15], 0.97 ± 0.19 nM; with HDGF S103A [16], 0.34 ± 0.06 nM; in the data set with HDGF [17], 0.25 ± 0.03 nM. The binding result in the data set with HDGF C140 domain [2] (label: Cy3) is listed as “no binding”.
Consider TTTTTTTTTTTTTTTTTTTTTTTTTTTTTTTTTTTTTTTT (ssDNA) [poly(dT)40 ssDNA], for which, in the data set with E. coli RecA, the Kd was found to be 34.5 ± 6.8 nM.

B4: 15 bp SMYD1 dsDNA (3' Cy3) (dsDNA)
DNA 1: TTCAAGACCAGCCTG
DNA 2: CAGGCTGGTCTTGAA
Take B4: the Kd was 1.4 ± 0.2 nM with HDGF PWWP domain [18] and 0.08 ± 0.004 nM in the data set with HDGF [19].

The values above are taken from article PMC11331505, “Binding Behavior of Human Hepatoma-Derived Growth Factor on SMYD1”.
